First the molecules themselves.
B1: DOMAIN_23018 (protein, listed as Colobus angolensis)
chain: AQMLVTFKDVAVTFTQEEWRQLDLTQRTLYREVMLETCGLLVSLGHRVPKPELVHLLEHGQELWTVKTGLSQPTCAGDRTQ
B2: DOMAIN_23093 (protein, listed as Propithecus coquereli)
chain: ESLTLEDVAVEFTWEEWQLLGPAQKDLYWDVMLENYNHLVSLGYQASKPDALSKLAQGEEPCVIEGKIQNRNCPGIRKADS
B3: DOMAIN_24838 (protein)
chain: FQASVSFKDVTVELTQEEWQQMGPLQRTLYRDVMLENYNNLVSVGSCIYKPELIFKLEQGEEPWLLEEEFSNQSYQVLEHY
modifications: Pteropus alecto
B4: DOMAIN_24446 (protein, listed as Propithecus coquereli)
chain: SQGLVSFKDVAVDFTQDEWQQLDPAQRTLYRDVMLENYSHLVSMGYPVSKPDVISKLEQGEDPWIIKRDISNWIYPDENQA
B5: DOMAIN_25565 (protein, listed as Muntiacus reevesi)
chain: LPLTFEDVAVYFSEQEWQNLEAWQKELYKQVMRANYEILLSLDNGLPKPELISWIEQGKELFKKWGESQQSRSIICSSADL
B6: DOMAIN_23331 (protein, listed as Carlito syrichta)
chain: LQELLSFEDLSVDFTQKEWQLLNPYQKNLYKDVMLENYSSLVSLGYEVIKPDVIFKLEQGEEPWIRDAEMPSSPSLEVWQV
B7: DOMAIN_22527 (protein, listed as Tursiops truncatus)
chain: VQASLSFEDVAVHFTWEEWQLLDPSQKDLYRNVMWENYCNLVSVGYQTPKPDSFFQLEQGEPPWTVEGAGQSQTCPGTRAS
B8: DOMAIN_25671 (protein, listed as Muntiacus reevesi)
chain: GLLSFEDVALYFTREEWDTLDWAQKALYRDVMLDNYRHIVSLGFPFPKPEVICQLEQWEEPWTLDLPRAGTRKASGSACPD
B9: DOMAIN_23454 (protein, listed as Carlito syrichta)
chain: GKALLSFEDVAMYFTREEWNHLDWAQKDLYRDVMLENYMNMVLLGFQFPKPEVICQLENWDEPWILDLPRAGNRKASSSAC
B10: DOMAIN_22917 (protein, listed as Cervus elaphus)
chain: MAFEDVAVHFSQEEWGLLDTAQRSLYRRVMLENFALLASLGLSVSRPHVVTQLERGEEPWVLSGVDVTLPRDAQRRPHRGS
B11: DOMAIN_22778 (protein, listed as Saimiri boliviensis)
chain: SQGSVSFKDVTVDFTQEEWQQLDPAQKALYRDVMLENYCHFIAVGFHMTKPDMIRKLEQGEELWTQRIFPSYSYLEEDGKT
B12: DOMAIN_22586 (protein)
chain: FQASVSFQDVTVEFSQEEWQHLGPVERTLYRDVMLENYSHLVSVGYCFTKPELIFTLEQGEDPWLLEKEKGFLSRNSPEDS
modifications: Nomascus leucogenys
B13: DOMAIN_25235 (protein, listed as Oryctolagus cuniculus)
chain: LPGLMAFEDVAVYFSQEEWGLLDAVQRALYRHVMLENFALVASLGLSASPPHVVIQLQRGEEPWVPSGLDMTSARNGHRRP
B14: DOMAIN_24615 (protein, listed as Colobus angolensis)
chain: TEGLVMFEDVAVYFSREEWGLLNVTQKGLYQDVMLENFALVSSLGLAPLRSPVFSQLENDEQLWVPSWVDETPVSRAEARR
B15: DOMAIN_25682 (protein, listed as Rhinopithecus bieti)
chain: PRLPLTFEDVAIYFSEQEWQDLEAWQKELYKHVMRSNYETLVSLDDGLPKPELISWIEHGGEPFRNWRESQKSRNIICSSS
B16: DOMAIN_24903 (protein, listed as Ailuropoda melanoleuca)
chain: EMEPHSHAVPCQPSMSFKDVAVTFTQEEWGQLNLAQRRLYRNVTLETWSHLVSLGLLLSKPDVISWLEQGQDPWRAEQGPP
B17: DOMAIN_25654 (protein)
chain: LWLPLTFEDIAIYFSEQEWQNLEAWQKDLYRNVMRANYEILVSLDDGLPKPELISHIEQGKELFWNLGETQKSGNIICSSA
modifications: Pteropus alecto
B18: DOMAIN_23281 (protein, listed as Colobus angolensis)
chain: CWGLLSFKDISMEFTWDEWQLLDSTQKYLYRDVILENYHNLISVGYHGTKPDLIFKLEQGEDPWIINAKISRQSRPDGWEE
B19: DOMAIN_24204 (protein, listed as Propithecus coquereli)
chain: SLGSVSFKDVTVDFSREEWQQLDLAQKSLYRDVTLENYFNLISVGCQVPKPEVIFNLEQGGELCVLDGGLSCQNCSDGDIG
B20: DOMAIN_23113 (protein, listed as Camelus ferus)
chain: GSVCEVSVSFEDVTVDFSREEWQHLDPAQRRLYWDVTLENYSHLCSVGYQVPKPEVIFKLEQGEGPWTLEEETPHQSCSGA
B21: DOMAIN_22919 (protein, listed as Colobus angolensis)
chain: KPGTVSFADVAVYFSREEWGYLRPAQRALYRDVMRETYCHLGALGVGGSKPALISWVEEEAELWDPAARDPEVTKGLTETD
B22: DOMAIN_22495 (protein, listed as Callorhinus ursinus)
chain: CEGLVSFEDVTMDFSREEWQQLDPAQRCLYWDVMLEIYSHLLSVGYHIPNPEIISRMEKGKKSWIRGAQLPHQRHREVVFG
B23: DOMAIN_23856 (protein, listed as Erinaceus europaeus)
chain: SLGMVSFDDVMVTFSLEEWQLLSTSQRTLYRTVMLDTYSSLAALGHCAVKPGVIIKLEQGAEPWMGAQAPPRSLSDPCGPS
B24: DOMAIN_23679 (protein, listed as Tupaia chinensis)
chain: MAFEDVAVYFSREEWELLDTAQRALYRHVMLENFALVASLGFSPSRPCVVIQLESGKEPWLHSGMDTTMSRHAHKRPSSGS
B25: DOMAIN_749 (protein, listed as Pan paniscus)
chain: MGPQGARRQAFLAFGDVTVDFTQKEWRLLSPAQRALYREVTLENYSHLVSLGILHSKPELIRRLEQGEAPWGEERRRRPGP
B26: DOMAIN_731 (protein, listed as Pan paniscus)
chain: MAGEAEAQLDPSLQGLVMFEDVTVYFSREEWGLLNVTQKGLYRDVMLENFALVSSLGLAPSRSPVFTQLEDDEQSWVPSWV

For the first experiment, the system named is HBEGF locus. The experiment is classed as cell-based, human. The conditions noted are these: high-throughput screen of dXR repression of the HBEGF gene; abundance of each domain in the library before vs after diphtheria toxin selection; listed domains met p-value <0.01 and log2(fold change) >2.
For B1, the “Log2 (fold change)” value was found to be 3.4177.

In the case of B2, the “Log2 (fold change)” value turned out to be 3.2165. On the same count and under the same terms, the figure for B3 is 2.3323; for B4 it is 3.6312; for B5 it is 2.6133. The same measure, in the same setting: the figure for B6 is 2.8995; for B7 it is 2.989; for B8 it is 3.5244. On the same count and under the same terms, with B9 the figure was 3.0632. As to B10, the “Log2 (fold change)” value turned out to be 3.8061. Same read-out and setting: with B11 the figure was 3.1251.

As for B12, the “Log2 (fold change)” value stood at 2.1811. Same read-out and setting: the figure for B13 is 3.6965. For the molecule B14, the “Log2 (fold change)” value is on record as 2.4075. Turning to B15, the “Log2 (fold change)” value stood at 2.5621. The same measure, in the same setting: the figure for B16 is 3.0377. On the same count and under the same terms, with B17 the figure was 2.2996; with B18, 2.5048. The same measure, in the same setting: the figure for B19 is 3.0779.

In the case of B20, the “Log2 (fold change)” value worked out at 3.4612. Still for that read-out and setting: with B21 the figure was 2.8609; with B22, 2.2623; with B23, 3.1072. Same read-out and setting: with B24 the figure was 3.7951.

The same experiment, now with this note: high-throughput screen of dXR repression of the HBEGF gene; change in abundance of each domain in the library before and after diphtheria toxin selection.
Consider B25, for which the “Log2 (fold change)” value is given as 3.1162. On the same count and under the same terms, the figure for B26 is 2.1318.

The values are drawn from patent US12551573B2, “Compositions and methods for the targeting of PCSK9” (Scribe Therapeutics Inc., priority 2022, dated 2026).
